This is an account of results in publication PMC8050843.

The target of this test is Ndc80C-GFP (S. cerevisiae Ndc80 complex with GFP at the C terminus of Spc24) (S. cerevisiae) (UniProt P40460).
UniProt P40460, sequence (P40460 whole entry, chain 1 of 4): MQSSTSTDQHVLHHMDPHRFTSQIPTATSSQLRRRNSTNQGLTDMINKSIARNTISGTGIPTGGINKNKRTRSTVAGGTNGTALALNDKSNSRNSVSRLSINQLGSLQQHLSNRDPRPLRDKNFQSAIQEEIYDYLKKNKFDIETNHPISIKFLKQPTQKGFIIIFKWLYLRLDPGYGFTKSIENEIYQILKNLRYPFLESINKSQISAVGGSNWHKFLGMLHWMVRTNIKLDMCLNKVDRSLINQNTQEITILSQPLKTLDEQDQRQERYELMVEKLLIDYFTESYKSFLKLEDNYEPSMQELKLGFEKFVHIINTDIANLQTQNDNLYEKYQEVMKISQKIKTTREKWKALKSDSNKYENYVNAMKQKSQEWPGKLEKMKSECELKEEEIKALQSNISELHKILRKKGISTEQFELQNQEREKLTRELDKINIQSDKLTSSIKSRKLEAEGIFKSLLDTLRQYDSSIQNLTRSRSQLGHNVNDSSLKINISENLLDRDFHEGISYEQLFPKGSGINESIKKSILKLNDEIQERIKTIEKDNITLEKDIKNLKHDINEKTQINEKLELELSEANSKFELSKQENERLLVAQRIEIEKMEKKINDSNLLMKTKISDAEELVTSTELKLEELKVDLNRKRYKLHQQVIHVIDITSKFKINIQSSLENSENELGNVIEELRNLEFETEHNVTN
UniProt P40460, sequence (P33895 whole entry, chain 2 of 4, further chain): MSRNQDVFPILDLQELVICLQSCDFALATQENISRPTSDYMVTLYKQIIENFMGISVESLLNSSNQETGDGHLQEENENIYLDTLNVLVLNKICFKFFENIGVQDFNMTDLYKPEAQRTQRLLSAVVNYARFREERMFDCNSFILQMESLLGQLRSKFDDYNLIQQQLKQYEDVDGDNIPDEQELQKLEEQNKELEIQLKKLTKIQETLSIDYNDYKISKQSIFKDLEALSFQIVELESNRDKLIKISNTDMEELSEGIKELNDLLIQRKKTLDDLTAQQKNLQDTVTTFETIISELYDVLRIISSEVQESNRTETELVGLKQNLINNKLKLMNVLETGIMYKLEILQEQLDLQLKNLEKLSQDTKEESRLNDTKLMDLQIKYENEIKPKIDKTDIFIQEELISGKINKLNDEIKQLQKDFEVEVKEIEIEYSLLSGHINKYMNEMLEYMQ
UniProt P40460, sequence (Q04477 whole entry, chain 3 of 4, further chain): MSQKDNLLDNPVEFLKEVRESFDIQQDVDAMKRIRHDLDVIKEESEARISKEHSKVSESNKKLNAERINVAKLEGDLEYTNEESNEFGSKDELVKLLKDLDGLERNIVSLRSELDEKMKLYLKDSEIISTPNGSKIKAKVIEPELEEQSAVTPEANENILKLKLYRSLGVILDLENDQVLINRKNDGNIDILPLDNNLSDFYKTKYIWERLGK
UniProt P40460, sequence (P40014 whole entry, chain 4 of 4, further chain): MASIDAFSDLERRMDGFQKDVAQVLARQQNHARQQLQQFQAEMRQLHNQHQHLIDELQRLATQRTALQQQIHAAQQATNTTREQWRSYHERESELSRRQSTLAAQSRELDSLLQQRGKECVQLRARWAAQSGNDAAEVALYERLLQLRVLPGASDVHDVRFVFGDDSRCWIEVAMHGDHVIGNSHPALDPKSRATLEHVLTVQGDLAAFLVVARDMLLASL

Turning to “Dam1C (S. cerevisiae Dam1 complex, without GFP) (from UniProt P53267 1-343; Q12248 1-94; P36131 1-295)”, the detachment of the Ndc80C nanobead from the MT plus end following transient end-on attachment (end-on drop-off) in the absence of Dam1C, against its presence is 31%.
